How the values were obtained:
[1] = target: FLAG-mLangerin.ECD (mouse) (UniProt Q9CS74); assay: Western blot, purified protein in two-fold dilutions, 1 µg/ml antibody
[2] = target: both N-terminal and C-terminal FLAG tagged proteins; assay: Western blot, serial dilutions
[3] = target: FLAG-mSIGN-R1.ECD (mouse) (UniProt Q9CS74); assay: Western blot, 293T lysate in two-fold dilutions

| Substance | lowest amount of purified protein detected by Western blot [1] [ng] | times better detection than mAb M2 [2] [times] | fold fewer cells detectable than mAb M2 [3] [fold] | fold lower detectable amount than mAb M2 [1] [fold] |
| --- | --- | --- | --- | --- |
| mouse anti-FLAG mAb M2 (ANTI-FLAG M2, Sigma-Aldrich) (antibody) | 100 |  |  |  |
| rat anti-FLAG mAb L5 (antibody) | 25 | 2 to 8 | 8 | 4 |

Source: US20090098608A1
